According to patent US20250340659A1 (PETMEDIX, published 2025):

T1: canine OX40L, full length membrane form, expressed on HEK293 cells (canine)
T1 chain: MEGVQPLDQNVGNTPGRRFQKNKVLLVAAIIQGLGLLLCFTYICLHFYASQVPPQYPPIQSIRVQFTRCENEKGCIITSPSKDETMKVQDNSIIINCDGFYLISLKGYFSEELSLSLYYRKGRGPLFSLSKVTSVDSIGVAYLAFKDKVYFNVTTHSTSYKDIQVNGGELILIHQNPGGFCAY

T2: recombinant canine OX40L ECD-TNCc-HIS protein (canine)
T2 construct: also called Trimeric OX40L probe (HIS tag); trimeric canine OX40L
T2 chain: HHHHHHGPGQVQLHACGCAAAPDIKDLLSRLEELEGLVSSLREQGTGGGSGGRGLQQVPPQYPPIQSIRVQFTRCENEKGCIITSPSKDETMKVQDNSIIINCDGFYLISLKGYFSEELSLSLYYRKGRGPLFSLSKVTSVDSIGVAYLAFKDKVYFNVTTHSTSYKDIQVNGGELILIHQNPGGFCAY


Assays:
[1] = molecular target: T1, canine OX40L, full length membrane …; experiment: cell-based or functional assay
[2] = molecular target: T2, recombinant canine OX40L ECD-TNCc-HIS …; experiment: SPR KD1, bivalent analyte model
Method: (§1) Affinity (Kd) of OX40L antibodies is measured by SPR, using a recombinant canine OX40L ECD-TNCc-HIS protein (Seq ID 811) as the capturing agent (FIG. 5B).
(§2) Functional affinity is determined using a Biakore 8K (Cytiva). in brief, purified OX40L ECD-TNCc-HIS protein is covalently bound at low density to the surface of a CM5 sensor chip (Cytiva) by amine coupling, using the manufacturer's recommended protocol. Candidate antibodies are subsequently passed across the chip surface at a range of concentrations and affinity determined using the dedicated software (Biacore Insight Evaluation Software). Curves were fitted using a bivalent analyte binding model.

[3] = molecular target: T2, recombinant canine OX40L ECD-TNCc-HIS …; experiment: SPR Koff (kd2)
Method: as §1, §2

[4] = molecular target: T2, recombinant canine OX40L ECD-TNCc-HIS …; experiment: SPR Koff (kd1)
Method: as §1, §2

[5] = molecular target: T1, canine OX40L, full length membrane …; experiment: flow cytometry, OX40L HEK minus WT HEK
Method: (§3) CHO supernatants diluted in FACS buffer (PBS containing 3% FBS) at 1, 5 or 10 μg/ml were used to screen for their binding capacity to canine OX40L using a cell-based assay. In brief, HEK293 or MEF cells (or any other commonly used cell lines) expressing canine OX40L at the cell surface are incubated with 100 μll of FACS buffer containing the candidate antibody for 30′ on ice. Cells are washed with 150 μl FACS buffer followed by centrifugation at 300 g for 3 min. The cell pellet is resuspended in FACS buffer containing a 1:1000 dilution of a fluorescently labelled secondary antibody recognising the canine Fc region of the test antibody for 30 min in the dark, followed by washing with 150 μl FACS buffer. Cells are resuspended in FACS buffer and flow cytometry performed using either a […] cytometer, followed by data analysis using FlowJo (FIG. 6 and Table 4).

[6] = molecular target: T1, canine OX40L, full length membrane …; experiment: flow cytometry
Method: as §3

Row | % Signal Inhibition Average [1] [%] | % Signal Inhibition Rep1 [1] [%] | % Signal Inhibition Rep2 [1] [%] | % Signal Inhibition Rep3 [1] [%] | Kd [2] [nM] | koff [3] [s⁻¹] | koff [4] [s⁻¹] | GEO mean difference [5] | GEO mean OX40L expressing HEK [6] | Binder
1 | 45 | 40.4 | 55 | 39.8 | 14.1 | 1.03 | 0.00147 | – | – | PMX098 (antibody, V domains shown) VH: EVQLVESGGDLVKPGGSLRLSCVASGFTFNTYHMNWVRQAPGKGLHWVAFINSGGSGTSYADTVKGRFTISRDYAKNTLYLQMNSLRAEDTAVYYCASGSIWTHFDYWGQGTLVTVSS VL: SYVLTQLPSVSLTLRQTAHITCGGDIIGSKSVYWYQQKLGQAPVLIIYRDNNRPTGIPERFSGASSGNTATLTISGALAEDEADYYCQVWDSSTQAMFGGGTHLTVL
2 | 31 | 31 | 28.1 | 33.9 | 17.6 | 1.23 | 0.00174 | – | – | PMX104 (antibody, V domains shown) VH: EVQLVESGGDLVRPGGSLRLSCVASGFTFSNYHMSWVRQAPGKGLQWVAFINSGGTSTTYADAVRGRFTTSRDYAKNTLYLQMNSLRAEDTAVYYCTSGSIWTHFDYWGQGTLVTVSS VL: SFVLTQLPSVSVTLRQTARITCGGDIIGSKSVYWFQQKLGQAPILIIYRDDNRPTGIPERFSGASSGNTATLIISGALAEDEAHYYCQVWDSSSKAMFGGGTHLTVL
3 | 60.8 | 56.1 | 73.1 | 53.2 | 0.492 | 0.744 | 7.16e-05 | – | – | PMX097 (antibody, V domains shown, also called PMX97) VH: EVQLVESGGDLVRPGGSLRLSCVASGITFSSYHMSWVRQAPGKGLQWVALINSGGSSITYADVVRGRFTISRDYAKNTLYLQMNSLRAEDTAVYYCASGSIWTHFDYWGQGTRVTVSS VL: SFVLTQLPSVSVTLRQTARITCGGDIIGSKNVYWYQQRLGQAPVLIIYRDSNRPTGIPERFSGASSGNTATLTISGALAEDEADYYCQVWDNSNKAMFGGGTHLTVL
4 | 84.7 | 84.6 | 79.3 | 90.1 | 15.6 | 22 | 0.00211 | 3.48e+06 | 3.5e+06 | PMX049 (antibody, V domains shown, also called PMX49) VH: EVQLVESGGDLVKPGGSLRLSCVASGFTFNNYEMYWVRQAPGKGLEWVARIYESGSTTFSAEAVTGRFTISRDNAKNMVYLQMNSLRAEDTAVYYCASASSSSWRFDYWGQGTLVTVSS VL: SYVLTQLPSVSVTLGQTARITCGGDSIGRKNVCWFQQRLGQAPELIIYDDRSRPSGIPERFSGANSGNTATLTISGALAEDEADYYCQVWDSSTGVFGGGTHLTVL
5 | 72.6 | 87.9 | 61.7 | 68.3 | 195 | 0.00169 | 0.0129 | 2.81e+06 | 2.83e+06 | PMX025 (antibody, V domains shown, also called PMX25) VH: EVHLVESGGDLVKPGGSLRLSCVASGFTFSSYHMSWVRQAPGKGLQWVAFINAGEISTNYADAVKGRFTISRDNAKNILYLQMNSLRAEDTAVYYCASGHIWIRPFDYWGQGTLVTVSS VL: SYVLTQLPSMSVTLRQTARITCEGDSIGRKRVNWYQQKLGQVPVLIIYDDDSRPSGIPERFSGANSGNTATLTISGALAEDEAEYYCQVWDSSNNWVFGEGTQLTVL
6 | 80.4 | 72.2 | 83.5 | 85.5 | 316 | 0.000505 | 0.0161 | 1.62e+06 | 1.65e+06 | PMX027 (antibody, V domains shown, also called PMX27) VH: EVHLVESGGDLVKPGGSLRLSCVASGFTFSTYHMSWVRQAPGKGLQWVAFINAGEISTNYADAVKGRFTISRDNAKNIFYLQMNSLRAEDTAVYYCATGHIWIRPFDYWGQGTLVTVSS VL: SYVLTQLPSMSVTLRQTARITCEGNSIGRKRVNWYQQKLGQVPVLIIYDDDSRPSGIPERFSGANSGNTATLTISGALAEDEAEYYCQVWDSSNNWVFGEGTQLTVL
